Reference: US20220306762A1 (CRYSTAL BIOSCIENCE, published 2022)
Read-outs that look alike come from different tables or passages of the source.

Columns and labels:
[1] = target: T1, His-tagged mouse CD38 (ACRO Biosystems CD8-M5223) (mouse, UniProt P56528 45-304); test: SPR, IgG
T1 construct: bought protein; used for ELISA coating and as SPR analyte; also called Murine; not shown: His tag
T1 sequence (looked up): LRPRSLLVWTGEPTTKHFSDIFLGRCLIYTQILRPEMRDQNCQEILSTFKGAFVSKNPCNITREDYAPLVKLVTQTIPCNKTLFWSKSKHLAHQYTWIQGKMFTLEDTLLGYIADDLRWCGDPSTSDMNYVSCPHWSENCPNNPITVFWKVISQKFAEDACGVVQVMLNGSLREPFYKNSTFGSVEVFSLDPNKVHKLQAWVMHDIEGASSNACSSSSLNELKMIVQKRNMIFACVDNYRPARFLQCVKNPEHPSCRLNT

[2] = target: T2, His-tagged human CD38 (ACRO Biosystems CD8-H5224) (human, UniProt P28907 43-300); test: SPR, IgG
T2 construct: bought protein; used for ELISA coating and as SPR analyte; not shown: His tag

[3] = target: T3, His-tagged human CD38 (ACRO Biosystems cat #CD8-H5224) (human, UniProt P28907 43-300); test: SPR (Carterra LSA), antibody captured by anti-human Fc, His-tagged CD38 injected; IgG by the head of Table 5
T3 construct: Bought His-tagged protein

[4] = target: T4, His-tagged cynomolgus monkey CD38 (ACRO Biosystems cat # CD8-05223 [sic]) (cynomolgus monkey, UniProt Q5VAN0 43-301); test: as above
T4 construct: Bought His-tagged protein; also called cynomolgus CD38

[5] = target: T5, CD38 on Daudi target cells (UniProt P28907 1-300, limits assumed); test: cell-based or functional assay
[6] = target: T5, CD38 on Daudi target cells; test: cell-based or functional assay; remark: listed apart in the source
[7] = target: T3, His-tagged human CD38 (ACRO Biosystems …); test: SPR (Carterra LSA), antibody captured by anti-human Fc, His-tagged CD38 injected
[8] = target: T4, His-tagged cynomolgus monkey CD38 (ACRO …); test: as above
[9] = target: T6, His-tagged cynomolgus monkey CD38 (ACRO Biosystems, CD8-05223 [sic]) (cynomolgus monkey, UniProt Q5VAN0 43-301); test: SPR, IgG
T6 construct: bought protein; used for ELISA coating and as SPR analyte; not shown: His tag

Row | Binder | Kd [1] [nM] | Kd [2] [nM] | Kd [3] [nM] | Kd [4] [nM] | ADCC EC50 [5] [ng/mL] | Lowest Remaining Target % [5] [%] | Max RLU [5] [RLU] | PBMC ADCC EC50 [5] [ng/mL] | Lowest Remaining Target % [6] [%] | Max RLU [6] [RLU] | PBMC ADCC EC50 [6] [ng/mL] | Reporter cell ADCC EC50 [6] [ng/mL] | Kd [7] [nM] | Kd [8] [nM] | Kd [9] [nM]
1 | 40596p2.1.A2 IgG (antibody, V domains shown, IgG) VH: EVQLLESGGGLVQPGGSLTLSCTASGLTFSSYAMNWVRQAPGKGLEWVATISSNSGSFRSYADSVKGRFTISRDNSKSTLYLQTNSLRAEDTALYYCTKDRSITANDFTMDVWGQGTTVTVSS VL: EIVLTQSPGTLSVSPGERATLNCRASQTVGSRLAWYQQKPGQAPRLLIYGASSRATGIPARFSGSGSGTEFTLTISSLQSEDFAVYYCQQYYDWPPLTFGGGTKVEIK | 6.71 | 10.9 | – | – | – | – | – | – | – | – | – | – | – | – | –
2 | 40769p2.2.E7 (antibody, V domains shown, Human V regions from transgenic chicken, cloned as scFv-Fc; The variable domains can be found in the listing by the CDRs) VH: EVQLLESGGGLVQPGGSLRLSCTGFGFTFTDARMSWVRQAPGKGLEWVADISSYGDNTYYADSVKGRFTISRDNSANTLYVQMNSLRAEDTAVYYCAKRMEREVMTIKLDYHAMDVWGQGTTVTVSS VL: QSVLTQTPSVSGTPGQRVTISCSGIFNIRNYVSWYQQLPGTAPKLLIFKDDQRLSGVPDRFSGSGSGTSASLAISGLQSEDEADYYCAAWDIFLNVWVFGGGTKLTVL | – | – | 0.47 | 1.99 | ~13.2 | 63 | 1.33e+06 | 0.0245 | 63 | 1.33e+06 | 0.0245 | ~13.2 | – | – | –
3 | 40769p2.2.C8 (antibody, V domains shown, Human V regions from transgenic chicken, cloned as scFv-Fc; The variable domains can be found in the listing by the CDRs) VH: EVQLLESGGGLVPPGGSLRLSCAASGFTFTNAWMSWVRQAPGKGLEWVSTIRSKTDGGTPYSADSVKGRFTISRDDSKNTLYLQMNSLRAEDTAVYYCAKYDYNYMDVWGQGTTVTVSS VL: QSVLTQPPSASGTPGQRVTISCSGTTSNIGRNYVHWYQQFPGTAPKLLIYRNSQRPSGVPDRFSGSKSGTSASLAISGLQSEDEADYYCAAWDDSLNGWLFGGGTKLTVL | – | – | 1.17 | 3.64 | ~9.74 | 58 | 2.18e+06 | 0.167 | 58 | 2.18e+06 | 0.167 | ~9.74 | – | – | –
4 | 40769p1.1.H10 (antibody, V domains shown, Human V regions from transgenic chicken, cloned as scFv-Fc; The variable domains can be found in the listing by the CDRs) VH: EVQLLESGGGLVQPGGSLRLSCAAFGFTFSDYEMNWVRQAPGKGLEWVSSISITGSWTGYADSVKGRFTISRDNSKNTLYLQMNNLRAEDTAVYYCANYKSYYGMDVWGQGTTVTVSS VL: not shown | – | – | – | – | 20.7 | 54 | 1.94e+06 | 0.411 | – | – | – | – | 0.02 | 3.08 | –
5 | 40769p2.1.C4 (antibody, V domains shown, Human V regions from transgenic chicken, cloned as scFv-Fc; The variable domains can be found in the listing by the CDRs) VH: EVQLLESGGGLVHPGGSLRLSCAASGFTFSDYEMNWVRQAPGKGLEWVSSISITGDFTYYADSVKGRFTISRDNSKNTLYLQMNNLRAEDTAVYYCANYKSYYGLDVWGQGTTVTVSS VL: not shown | – | – | 1.46 | 1.12 | ~12.2 | 63 | 1.44e+06 | 0.227 | 63 | 1.44e+06 | 0.227 | ~12.2 | – | – | –
6 | 40769p2.1.F2 (antibody, V domains shown, Human V regions from transgenic chicken, cloned as scFv-Fc; The variable domains can be found in the listing by the CDRs) VH: EVQLLESGGGLVQPGGSLRLSCVASGFTFTNYEMNWVRQAPGKGLEWVSSISITGNYIYYADSVKGRFTISRDNSKNTLYLQMNDLRAEDTAVYYCANYKSYHGMDVWGQGTTVTVSS VL: not shown | – | – | 3.3 | 7.05 | 25.3 | 57 | 1.72e+06 | 0.293 | 57 | 1.72e+06 | 0.293 | 25.3 | – | – | –
7 | 40769p2.1.E1 IgG (antibody, V domains shown, IgG) VH: EVQLLESGGGLIQPGGSLRLSCTASGFDFSSYGMHWVRQAPGKGLEWVAIISDSGGTTYYGDSVKGRFTISRDNSKSTLYLQMNSLRAEDTALYYCASYIMDVWGQGTTVTVSS VL: QSVLTQPPSASGTPEQRVTISCSGSNSNVGDNAVYWYQQLPGTAPKLLFYGTNRRPSGVPDRFSGSKSGTSASLAISGLQSEDEADYYCAAWDDSLNAWVFGGGTKLTVL | 1170 | 25.6 | – | – | – | – | – | – | – | – | – | – | – | – | 261
8 | 40769p2.2.A5 IgG (antibody, V domains shown, IgG) VH: EVQLLESGGGLIQPGGSLRLSCTASGFDFSSYGMHWVRQAPGKGLEWVGIISDTGGTTYYGDSVKGRFTISRDNSKSTLYLQMNSLRAEDTALYYCASYIMDVWGQGTTVTVSS VL: QSVLTQPPSASGTPGQRVTISCSGSNSNVGDNAVYWYQQLPGTAPKLLFYGTNRRPSGVPDRFSGSKSGTSASLAISGLQSEDEADYYCAAWDDSLNAWVFGGGTKLTVL | 1160 | 18.8 | – | – | – | – | – | – | – | – | – | – | – | – | 221
9 | 40769p2.1.G4 IgG (antibody, V domains shown, IgG) VH: EVQLLESGGGLVQPGGSLRLSCAASGFTFTSHDMNWVRQAPGKGLEWVSTITTGGNTYYADSVKGRFTISRDNSKNTLYLQMTSLRAEDTAVYYCTKHYSMDVWGQGTTVTVSS VL: QSVLTQPPSASGTPGQRVTISCSGSTSNVVFNAVYWYQQLPGTAPKLLFYGKSQRPSGVPDRFSGSKSGTSASLAISGLQSEDEADYYCAAWDDTLNGWVFGGGTKLTVL | 106 | 35.5 | – | – | – | – | – | – | – | – | – | – | – | – | 73.8
10 | 40769p2.1.H12 IgG (antibody, V domains shown, IgG) VH: EVQLLESGGGLIQPGGSLRLSCTASGFDFSSYGMHWVRQAPGKGLEWVGIISDSGGTTYYADSVKGRFTISRDNSKNTLYLQMNSLRAEDTALYYCASYIMDVWGQGITVTVSS VL: QSVLTQPPSASGTPGQRVTISCSGSNSNVGVNSVYWYQQLPGTAPKLLIYGSGRRPSGVPDRFSVSKSGTSASLAISGLQSEDEADYYCAAWDDGLNAWVFGGGTKLTVL | 21400 | 160 | – | – | – | – | – | – | – | – | – | – | – | – | 316
11 | 40769p2.2.A8 (antibody, V domains shown, Human V regions from transgenic chicken, cloned as scFv-Fc; The variable domains can be found in the listing by the CDRs) VH: EVQLLESGGGLVQPGGSLRLSCAASGFTFSDYWMNWVRQAPGKGLEWVSTISISGGIIYYADSVKGRFTISRDNSKNTLYLQMNSLRAEDTAVYYCAKDNWNDYYGMDVWGQGTTVTVSS VL: QSVLTQPPSASGTPGQRVTISCSGSTSNIRDNYVYWYQQVPGTAPKLLIYKDDQRPSGVPDRFSGSKSGTSASLAISGLQSDDEADYYCATWDGSLNGRVFGGGTKLTVL | – | – | 2.58 | 3.27 | 9.82 | 56 | 1.85e+06 | 0.273 | 56 | 1.85e+06 | 0.273 | 9.82 | – | – | –
